According to US20250108114A1:

Experiments:
Assay in all cases: cell-based or functional assay
[1] = target: CD19 on GFP/Luc+ Raji cells (human) (UniProt P15391)
[2] = target: truncated CD19 (amino acid 1 to 342) on SKOV3 cells (human) (UniProt P15391)
[3] = target: BCMA on H929 myeloma cells (human) (UniProt Q02223)
[4] = target: truncated BCMA (amino acid 1 to 98) on SKOV3 cells (human) (UniProt Q02223)
Sequence of truncated BCMA (amino acid 1 to 98) on SKOV3 cells (human) (Q02223 1-98 limits assumed): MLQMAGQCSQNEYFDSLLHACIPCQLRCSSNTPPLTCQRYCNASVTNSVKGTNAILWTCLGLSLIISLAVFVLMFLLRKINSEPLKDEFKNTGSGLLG

Sequence of BCMA on H929 myeloma cells (human) (Q02223 whole entry, the tested form may be a part): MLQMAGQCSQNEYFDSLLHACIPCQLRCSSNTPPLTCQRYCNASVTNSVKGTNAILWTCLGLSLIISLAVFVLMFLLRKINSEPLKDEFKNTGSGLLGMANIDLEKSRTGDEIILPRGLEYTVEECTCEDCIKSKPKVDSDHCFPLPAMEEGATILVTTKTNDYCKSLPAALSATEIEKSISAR
Sequence of CD19 on GFP/Luc+ Raji cells (human) (P15391 20-556): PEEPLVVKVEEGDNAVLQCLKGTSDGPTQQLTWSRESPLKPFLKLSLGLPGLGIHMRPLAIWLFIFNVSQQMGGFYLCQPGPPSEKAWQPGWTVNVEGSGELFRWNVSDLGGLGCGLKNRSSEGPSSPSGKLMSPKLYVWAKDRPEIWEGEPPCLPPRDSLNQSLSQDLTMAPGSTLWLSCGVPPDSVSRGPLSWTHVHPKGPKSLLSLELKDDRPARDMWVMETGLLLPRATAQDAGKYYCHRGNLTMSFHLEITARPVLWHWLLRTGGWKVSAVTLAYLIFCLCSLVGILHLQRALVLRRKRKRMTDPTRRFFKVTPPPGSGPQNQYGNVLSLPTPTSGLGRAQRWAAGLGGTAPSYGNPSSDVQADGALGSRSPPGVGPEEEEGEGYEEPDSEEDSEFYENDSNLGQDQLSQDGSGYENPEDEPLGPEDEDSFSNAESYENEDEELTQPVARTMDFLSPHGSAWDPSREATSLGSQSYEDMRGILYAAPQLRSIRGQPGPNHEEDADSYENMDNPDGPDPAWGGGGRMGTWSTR
Sequence of truncated CD19 (amino acid 1 to 342) on SKOV3 cells (human) (P15391 20-342 limits assumed, form in doubt): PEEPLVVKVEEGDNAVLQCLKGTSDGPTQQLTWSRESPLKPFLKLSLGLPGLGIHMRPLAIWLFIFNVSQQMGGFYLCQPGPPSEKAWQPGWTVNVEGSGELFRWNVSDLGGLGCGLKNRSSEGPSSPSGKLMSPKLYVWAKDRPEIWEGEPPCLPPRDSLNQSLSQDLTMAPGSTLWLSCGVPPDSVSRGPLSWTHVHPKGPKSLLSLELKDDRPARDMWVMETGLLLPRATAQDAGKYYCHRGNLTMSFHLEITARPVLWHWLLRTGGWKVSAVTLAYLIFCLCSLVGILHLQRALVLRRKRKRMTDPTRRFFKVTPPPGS

Row | Substance | Specific cell lysis ratio (at E:T = 3:1), luciferase killing assay [1] | cytotoxicity, real-time cytotoxicity assay (xCELLigence), E:T 0.1:1 (fold against Comparative Example 1C) [2] | cytotoxicity, flow cytometry with counting beads, E:T 0.1:1, 24 hours [3] | cytotoxicity, real-time cytotoxicity assay (xCELLigence), E:T 0.3:1 and 0.1:1, after 36 hours of co-culture [4] | cytotoxicity, flow cytometry with counting beads, E:T 0.3:1 and 1:1, 24 hours [3]
1 | anti-CD19-NKp30 chimeric antigen receptor of Example 1-5 (FMC63 scFv, (EAAAK)3 hinge, NKp30 without immunoglobulin-like domain), on CAR-T cells of Example 1-5C (from UniProt O14931 129-201; P30273 19-86) | 83.6% | > 3 | – | – | –
2 | anti-CD19-NKp30 chimeric antigen receptor of Example 1-4 (FMC63 scFv, hinge domain of IgG4, NKp30 without immunoglobulin-like domain), on CAR-T cells of Example 1-4C (from UniProt O14931 129-201; P30273 19-86) | 51% | – | – | – | –
3 | anti-BCMA chimeric antigen receptor of Comparative Example 3 (J6M0 scFv, hinge domain of CD8, transmembrane domain of CD8, 4-1BB, signal transduction domain of CD3ζ), on CAR-T cells of Comparative Example 3C (from UniProt P01732 183-206; Q07011 214-255; P20963 52-164) | – | – | 74.8% | – | –
4 | anti-BCMA-NKp30 chimeric antigen receptor of Example 3 (J6M0 scFv, hinge domain of CD28, NKp30 without immunoglobulin-like domain), on CAR-T cells of Example 3C (from UniProt O14931 129-201; P30273 19-86) | – | – | 73.5% | 100% | 80 to 85%
